Measured values reported in paper PMC4451147.

Key:
[1] = biological target: Tubulin purified from lamb brains (sheep (purified from lamb brains)); test: ITC; stathmin (syringe) injected into tubulin (cell); vinflunine (10 uM) in cell and syringe; 37°C; 20 mM NaPi, 4 mM MgCl2, 0.1 mM GTP, pH 6.5; one set of sites model; apparent constants
[2] = biological target: Tubulin purified from lamb brains (sheep (purified from lamb brains)); test: ITC; stathmin (syringe, 50-200 uM) injected into tubulin (cell, 5-20 uM); no MTA; 37°C; 20 mM NaPi, 4 mM MgCl2, 0.1 mM GTP, pH 6.5; one set of sites model; apparent constants

Ka [1]: 7.8e+06 M⁻¹
dH (kcal/mole of stathmin) [1]: -30
Ka [2]: 2.7e+06 M⁻¹
dH (kcal/mole of stathmin) [2]: -7.5
B1: Human recombinant stathmin (natural protein)
chain: MASSDIQVKELEKRASGQAFELILSPRSKESVPEFPLSPPKKKDLSLEEIQKKLEAAEERRKSHEAEVLKQLAEKREHEKEVLQKAIEENNNFSKMAEEKLTHKMEANKENREAQMAAKLERLREKDKHIEEVRKNKESKDPADETEAD
